Results from patent US20230076357A1.

How the values were obtained:
Test in all cases: cell-based or functional assay
[1] = biological target: nCas9-LZ1 (NLS-SpCas9(H840A)-NLS-EE12RR345L(leucine zipper)) (Streptococcus pyogenes serotype M1) (UniProt Q99ZW2)
[2] = biological target: nCas9(1-1172)-Npu N intein (Streptococcus pyogenes serotype M1) (UniProt Q99ZW2)
[3] = biological target: constitutively active SAMHD1 (SAMHD1 (T592A)) (UniProt Q9Y3Z3)
Chain of constitutively active SAMHD1 (SAMHD1 (T592A)) (Q9Y3Z3 whole entry T592A): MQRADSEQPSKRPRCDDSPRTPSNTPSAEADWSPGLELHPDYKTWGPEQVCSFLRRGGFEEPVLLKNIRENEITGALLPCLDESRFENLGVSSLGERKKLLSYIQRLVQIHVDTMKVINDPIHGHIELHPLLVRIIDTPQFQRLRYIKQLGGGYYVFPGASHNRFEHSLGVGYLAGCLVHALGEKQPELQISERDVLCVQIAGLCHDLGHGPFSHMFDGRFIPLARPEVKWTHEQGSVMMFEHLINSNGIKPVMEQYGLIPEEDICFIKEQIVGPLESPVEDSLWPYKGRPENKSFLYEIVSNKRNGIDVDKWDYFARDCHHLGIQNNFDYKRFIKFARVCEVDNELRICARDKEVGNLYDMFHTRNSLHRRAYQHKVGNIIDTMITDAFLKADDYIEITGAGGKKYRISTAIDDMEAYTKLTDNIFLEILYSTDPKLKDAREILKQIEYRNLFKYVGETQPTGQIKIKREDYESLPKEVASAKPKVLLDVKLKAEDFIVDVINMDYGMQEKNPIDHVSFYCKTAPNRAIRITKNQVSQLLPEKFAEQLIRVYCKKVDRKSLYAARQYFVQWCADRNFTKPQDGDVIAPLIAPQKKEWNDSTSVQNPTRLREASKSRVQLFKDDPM

Substance: LZ2-mlvRT (RR12EE345L(leucine zipper)-mlvRTv(D200N, L603W, T306K, W313F, T330P)-NLS) (enzyme)
- editing efficiency (BFP to GFP conversion in HEK293T-BFP cells) [1]: 38%

Substance: Npu C intein-nCas9(1173-1368 with S1173C)-mlvRT5M (enzyme)
- editing efficiency (% GFP+) [2]: 29%

Substance: VPX^RH2-1 (variant of VPX from HIV-2 clinical isolate RH2-1) (from UniProt P20881 1-112)
- editing efficiency with RW2I, edit 2 nt from the nick, SAMHD1 (T592A) coexpressed [3]: 64%

Substance: Vpx peptide (Hiv2-rod Vpx) (from UniProt P06939 1-112)
- editing efficiency relative to that without SAMHD1^p-, edit 65 nt from the nick [3]: 78%
